Source: CN1930187A (ABGENIX INC, dated 2007)
Positions count from the first letter of the chain named.

B1: AB-EGFRvIII-XG1K-13.1.2 (antibody, V domains shown)
VH: QVQLVESGGGVVQPGRSLRLSCAASGFTFSSYGMHWVRQAPGKGLEWVAVIWYDGSNKYYVDSVKGRFTISRDNSKNTLYLQMNSLRAEDTAVYYCARDGWQQLAPFDYWGQGTLVTVSS
VL: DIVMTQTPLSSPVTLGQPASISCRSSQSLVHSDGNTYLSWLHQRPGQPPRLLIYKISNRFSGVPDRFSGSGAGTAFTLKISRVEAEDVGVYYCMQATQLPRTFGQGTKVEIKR
notes: Human IgG1 kappa from a XenoMouse G1 hybridoma; Residue numbers of the mutants count on this running numbering
B2: AB-EGFRvIII-XG1-095 (antibody, human IgG1, V domains shown)
VH: QVQLQESGPFLVKPSQTLSLTCTVSGGSISSGGYYWSWIRQHPGKGLEWIGFIYYRGNTYYNPSLKSRVTISVDTSKNQFSLKLSSVTAADTAVYYCARDGYCSRTGCYGGWFDPWGQGTLVTVSP
VL: DIVMTQTPLSSPVTLGQPASISCRSSQSLIHTDGNIYLSWLQQRPGQPPRLLIYKISNRFSGVPDRFSGSGAGTDFTLKISRVEAEDVGVYYCMQGTQFPITFGQGTRLEIK
B3: SC-EGFRvIII-XG1-139 (antibody, human IgG1, V domains shown)
VH: EVQVLESGGGLVQPGGSLRLSCAASGFTFSSYAMSWVRQAPGKGLEWVSAISGSGGSTNYADSVKGRFTISRDNSKNTLYLQMNSLRAEDTAVYYCAGSSGWSEYWGQGTLVTVSS
VL: DIQMTQSPSSLSASVGDRVTITCRASQGIRNNLAWYQQKPGKAPKRLIYAASNLQSGVPSRFTGSGSGTEFTLIVSSLQPEDFATYYCLQHHSYPLTSGGGTKVEIK
B4: SC-EGFRvIII-XG2-150 (antibody, human IgG1, V domains shown)
VH: QVQLQQSGPGLVKPSQTLSLTCAISGDSVSSYSSAWNWIRQSPSRGLEWLGRAYHRSRWYYEYAVSVKSRINITPDTSKNQFSLQLNSVTPEDTAVYYCARGSRFDYWGQGTLVTVSS
VL: B2 VL with I30V, T32R, I36T, V90I, Y92F, Q95H, G96T, I101W, L109V
B5: SC-EGFRvIII-XG2-170 (antibody, human IgG1, V domains shown)
VH: QVQLQQSGPGLVKPSQTLSLTCAISGDSVSSNNAAWNWIRQSPARGLEWLGRTYYRSKWYNDYVVSVKSRITINPDTSKNQFSLQLNSVTPEDTAVYYCVRATAFDYWGQGTLVTVSS
VL: AIVLTQTPLSSPVTLGQPASISCRSSQSLVHRDGNTYLSWLQQRPGQPPRLLIYKISNRFSGVPDRFSGSGAGTDFTLKISRVEPDDVGVYYCMHTTQLPWTFGQGTKVEIK
B6: SC-EGFRvIII-XG1-211 (antibody, human IgG1, V domains shown)
VH: QVQLVESGGGVVQPGRSLRLSCVASGFTLSSYGMHWVRQAPGKGLEWVAVTSYDGSKKDYADSAKGRFTISRDNSKNTLYLQMNSLRAEDTAVYYCVSEGYCSSSSCYKYYYYGMDVWGQGTTVTVSS
VL: DIVMTQSPLSLPVTPGEPASISCRSSQSLLYRNGNNYLDWYLQRPGQSPQLLIYLGSNRASGVPDRFSGSGSGTDFTLKISRVEAEDVGVYYCMQALQTPRTFGQGTKVEIK
B7: SC-EGFRvIII-XG1-250 (antibody, human IgG1, V domains shown)
VH: B3 VH with V2G, V4L, L11W, G16E, M83V, A88V
VL: DIQMTQSPSSLSASVGDSVTITCRTSQGIRKNLGWYQQKPGKAPKRLIYAASSLQSGVPSRFSGSGSGTEFTLTISRLQPEDFATYYCLQHHSYPLTFGGGTRVEIR
notes: also called sc250; SC250
B8: SC-EGFRvIII-XG1-131 (antibody, V domains shown)
VH: QVQLVESGGGVVQSGRSLRLSCAASGFTFRNYGMHWVRQAPGKGLEWVAVIWYDGSDKYYADSVRGRFTISRDNSKNTLYLQMNSLRAEDTAVYYCARDGYDILTGNPRDFDYWGQGTLVTVSS
VL: DTVMTQTPLSSHVTLGQPASISCRSSQSLVHSDGNTYLSWLQQRPGQPPRLLIYRISRRFSGVPDRFSGSGAGTDFTLEISRVEAEDVGVYYCMQSTHVPWTFGQGTKVEIK
notes: Recombinant human antibody (XenoMax)

What was measured:
[1] = target: EGFRvIII (full length, expressed by cells: NR6 M, H1477, 300.19/EGFRvIII) (human, UniProt P00533 298-1210); assay: cell-based or functional assay
[2] = target: T1, EGFRvIII PEP3 peptide conjugated to OVA (EGFRvIII肽-OVA) (human, Cys 14 coupled to maleimide-activated ovalbumin (peptide:OVA 14.5:1)); assay: binding to pep3 (XenoMax screen)
T1 construct: also called EGFRvIII peptide-OVA; VIII-pep-OVA
T1 peptide: LEEKKGNYVVTDHC

Row | Binder | %内在化 [1] [%] | binding result [2]
1 | B1 | 82.5 | 
2 | B2 | 72.4 | 
3 | B3 | 80.8 | 
4 | B4 | 20 | 
5 | B5 | 20.1 | 
6 | B6 | 21.6 | 
7 | B7 | 16.7 | binds
8 | B8 |  | binds
